Assay results taken from patent US20210070843A1.

What was measured:
[1] = biological target: H7 A/Anhui/1-BALF_RG17/2013 HA on H7N9 AH/13 pseudo virus (influenza A virus A/Anhui/1-BALF_RG17/2013 (H7N9)); test: cell-based or functional assay
[2] = biological target: full-length H1 A/California/07/2009 HA expressed on 293T cells (influenza A virus A/California/07/2009 (H1N1)); test: cell-based or functional assay
[3] = biological target: full-length H5 A/Vietnam/1203/2004 HA expressed on 293T cells (influenza A virus A/Vietnam/1203/2004 (H5N1)); test: cell-based or functional assay
[4] = biological target: full-length H1 A/California/07/2009 HA expressed on 293T cells (influenza A virus A/California/07/2009 (H1N1)); test: flow cytometry, HA-expressing 293T
[5] = biological target: cell surface-expressed H3N2 WN/05 HA trimer (influenza A virus A/Wisconsin/67/2005 (H3N2)); test: flow cytometry, HA-expressing 293T
[6] = biological target: full-length H5 A/Vietnam/1203/2004 HA expressed on 293T cells (influenza A virus A/Vietnam/1203/2004 (H5N1)); test: flow cytometry, HA-expressing 293T
[7] = biological target: recombinant H5N1 VN/04 HA trimer (hemagglutinin ectodomain of A/Vietnam/1203/2004) (influenza A virus A/Vietnam/1203/2004 (H5N1)); test: ELISA, coated HA
[8] = biological target: recombinant H1N1 CA/09 HA trimer (hemagglutinin ectodomain of A/California/07/2009) (influenza A virus A/California/07/2009 (H1N1)); test: ELISA, coated HA
[9] = biological target: recombinant H7N9 AH/13 HA trimer (hemagglutinin ectodomain of A/Anhui/1-BALF_RG17/2013) (influenza A virus A/Anhui/1-BALF_RG17/2013 (H7N9)); test: ELISA, coated HA
[10] = biological target: recombinant H3N2 WN/05 HA trimer (hemagglutinin ectodomain of A/Wisconsin/67/2005) (influenza A virus A/Wisconsin/67/2005 (H3N2)); test: ELISA, coated HA

Substance	IC50 of pseudo virus neutralization H7N9 AH/13 [1]	IC50 of pseudo virus neutralization H1N1 CA/09 [2]	IC50 of true virus neutralization H1N1 CA/09 [2]	IC50 of pseudo virus neutralization H5N1 VN/04 [3]	EC50 [4]	max. MFI [4]	EC50 [5]	max. MFI [5]	max. MFI [6]	EC50 [7]	EC50 [8]	EC50 [9]	EC50 [10]
FI6V3 (antibody)	0.051 µg/mL	0.0213 µg/mL	9.21 µg/mL	0.013 µg/mL	0.067 µg/mL	10100 MFI	0.065 µg/mL	16600 MFI	13700 MFI	0.00648 µg/mL	0.0107 µg/mL	0.314 µg/mL	0.0789 µg/mL
F10 (antibody)	> 200 µg/mL	0.0119 µg/mL	1.26 µg/mL	0.012 µg/mL	1.05 µg/mL	9530 MFI	–	220 MFI	10500 MFI	0.021 µg/mL	0.0121 µg/mL	–	–
